Assay results published in patent publication US9012606B2, “In vivo half life increased fusion protein or peptide maintained by sustained in vivo release, and method for increasng in vivo half-life using same” (Alteogen, Inc., priority 2009, dated 2015).

Experiments:
[1] = Pharmacokinetics of hGH and hGH/alpha-1 antitrypsin fusions (serum ELISA); type: in vivo; conditions: Sprague-Dawley rats, subcutaneous, 200 μg/kg (Scitropin control)
Method: An anti-human growth hormone monoclonal antibody (Medix Biochemica, Finland) was diluted to a concentration of 1-5 μg/mL in phosphate buffered saline (PBS) and the dilution was aliquoted in an amount of 100 μL/well onto a 96-well plate (Nunc, Denmark) and incubated at room temperature for 15-18 hrs. After the antibody remaining suspended was removed, PBS containing 1% bovine serum albumin was plated in an amount of 250 μL/well and incubated at room temperature for 2 hours. The plates were washed three times with wash buffer (0.05% Tween 20, PBS) and the solution was aspirated. Samples were diluted in PBS containing 1% bovine serum albumin and added to the 96-well plates before incubation at room temperature for 2 hrs. The 96-well plates were washed five times with wash buffer and 100 μL of the human growth hormone monoclonal antibody-biotin conjugate prepared using sulfo-NHS-biotin (Pierce biotechnology, U.S.A.) was added to each well of the 96-well plates and then incubated at room temperature for 2 hrs. The plates were washed five times with wash buffer and incubated with streptabidin-HRP at room temperature for 30 min. Again, the plates were washed five times with wash buffer and reacted with 100 μL of a mixture of TMB (3,3′,5,5′-tetramethylbenzidine) and hydrogen peroxide per well for 30 min in a dark place. To each well was added 100 μL of 1 M sulfuric acid to terminate the reaction, followed by measuring absorbance at 450 nm on a VersaMax microplate reader (Molecular Device, U.S.A.). Values for each sample were calculated by regression analysis after a standard curve was plotted for a reference material.
Sprague-Dawley rats were used as experimental animals and three of them were administered with human growth hormone while five rats were assigned to each of the fusion-administered groups. The human growth hormone/alpha-1 antitrypsin fusion [T109wt: α1AT/hGH], the human growth hormone/alpha-1 antitrypsin monovariant fusion [T109: α1AT(P357N)/hGH], and the human growth hormone/alpha-1 antitrypsin divariant fusion [T109T: α1AT(P357N, S359T)/hGH], all prepared in Examples 1-3, were subcutaneously injected at a dose of 720 μg/kg into respective groups of Sprague-Dawley rats. The samples were diluted in PBS before injection. Blood samples were taken at 0, 1, 2, 4, 8, 12, 16, 24, 30 and 48 hrs after the injection, and centrifuged to obtain sera. For a control, Scitropin (SciGen, Singapore), a kind of human growth hormone, was subcutaneously injected at a dose of 200 μg/kg. PBS was used as a diluent. Blood samples were taken at 0, 0.33, 1, 2, 5, 8, 12, 18, 24, 30 and 48 hrs after the injection, and centrifuged to obtain sera. Each sample was analyzed in the same manner as the enzyme immunoassay of Test Example 1.

[2] = In vivo activity: body weight change in pituitary gland-removed rats; parameters: species or system Sprague-Dawley rats; conditions: subcutaneous 5 μg per rat every day (Eutropin), day 7
Method: Pituitary gland-removed Sprague-Dawley rats were used as experimental animals and divided into three groups of seven. To the hypophysectomyzed Sprague-Dawley rats, the human growth hormone/alpha-1 antitrypsin monovariant fusion [T109: α1AT(P357N)/hGH] prepared in Example 2 and human growth hormone (Eutropin, LG Life Sciences Ltd, Korea) were subcutaneously injected at doses of 18 μg and 5 μg per rat, respectively, every day. For a control, PBS was used. The rats were weighed every day after being injected.

[3] = Pharmacokinetics of IFN-α and IFN-α/alpha-1 antitrypsin monovariant fusion (serum ELISA); type: in vivo; conditions: Sprague-Dawley rats, subcutaneous, 60 μg/kg (Intermax alpha control)
Method: The enzyme immunoassay of human interferon alpha (IFN-α) and human interferon alpha/alpha-1 antitrypsin monovariant fusion was conducted with Human IFN-α Matched Antibody Pairs for ELISA (bender Medsystems, Austria). The IFN-α antibody (10 μg/ml) was allowed to adhere to 96-well plates and blocked as described in Test Example 1-1. A dilution of the sample was reacted with the antibody at room temperature for 2 hrs with shaking. An anti-IFN-α-HRP conjugate was plated in an amount of 50 μL/well and reacted with the antibody at room temperature for 2 hrs with shaking. Subsequent processes were conducted in the same manner as in Test Example 1-1.
Sprague-Dawley rats were used as experimental animals and five rats were assigned to each test group. The human interferon alpha/alpha-1 antitrypsin monovariant fusion [T502: α1AT(P357N)/IFN-α] prepared in Example 4 was subcutaneously injected at a dose of 200 μg/kg into Sprague-Dawley rats of one test group, 0, 0.33, 1, 2, 5, 8, 12, 18, 24, 30, 48, 72 and 96 hrs after which blood samples were taken, and centrifuged to obtain sera. […] Each sample was analyzed in the same manner as the enzyme immunoassay of Test Example 1.

[4] = Weweres et al. 1987; cited from earlier work
[5] = Pharmacokinetics of G-CSF and G-CSF/alpha-1 antitrypsin variant fusions (serum ELISA); type: in vivo; conditions: Sprague-Dawley rats, subcutaneous
Method: The same procedure as in Test Example 1 was repeated with the exception that an anti-granulocyte colony-stimulating factor (G-CSF) monoclonal antibody (RND systems, U.S.A.), instead of the anti-human growth hormone antibody, was diluted to a concentration of 1-5 μg/mL and granulocyte colony-stimulating factor polyclonal antibodies-biotin conjugate (RND systems, U.S.A.), instead of the human growth hormone monoclonal antibody-biotin conjugate, was used.
Sprague-Dawley rats were used as experimental animals and three of them were administered with granulocyte colony-stimulating factor while five rats were assigned to each of the fusion-administered groups. The granulocyte colony-stimulating factor/alpha-1 antitrypsin divariant fusion [T602S: α1AT(P357N, C232S)/G-CSF], and granulocyte colony-stimulating factor/alpha-1 antitrypsin trivariant fusion [T602ST: α1AT(P357N, C232S, S359T)/G-CSF], all prepared in Examples 5-6, were subcutaneously injected at a dose of 340 μg/kg into respective groups of Sprague-Dawley rats. Blood samples were taken at 0, 1, 2, 4, 8, 12, 16, 24, 30, and 48 hrs after the injection, and centrifuged to obtain sera. For a control, Filgrastim (Gracin, Jeil Pharmaceutical Co. Ltd. Korea), a commercially available granulocyte colony-stimulating factor, was subcutaneously injected at a dose of 100 μg/kg. Blood samples were taken at 0, 1, 2, 4, 8, 12, 18, 24, 30 and 48 hrs after the injection, and centrifuged to obtain sera. Each sample was analyzed in the same manner as the enzyme immunoassay of Test Example 1.

leucocytes = test: In vivo activity: changes in leucocyte level; conditions: Sprague-Dawley rats
Method: Sprague-Dawley rats were used as experimental animals and divided into five groups of five each. To the Sprague-Dawley rats, the granulocyte colony-stimulating factor/alpha-1 antitrypsin divariant fusion [T602S: α1AT(P357N, C232S)/G-CSF] prepared in Example 5 was subcutaneously injected at doses of 340 μg/kg and 1,700 μg/kg. To another groups of rats, the granulocyte colony-stimulating factor/alpha-1 antitrypsin trivariant fusion [T602ST: α1AT(P357N, C232S, S359T)/G-CSF] prepared in Example 6 and the granulocyte colony-stimulating factor Filgrastim (Gracin, Jell Pharmaceutical Co. Ltd. Korea) were subcutaneously injected at doses of 1,700 μg/kg and 100 μg/kg, respectively. Blood samples were taken from the tail on 3 days before experiment and on 1, 2, 3, 4 and 5 days after the injection and leucocytes were counted using Hematology Analyzer (Pentra 120).

[6] = system: Murine myeloblastic NFS-60 cells; test: In vitro activity in NFS-60 cells (MTS method); type: cell-based
Method: The rat lymphoma cell line (NB2 cell) was maintained in RPMI1640 supplemented with 10% HS (Horse serum), 10% FBS, 2-mercaptoethanol and antibiotics at 37° C. under a 5% CO2 condition. For 24 hrs before experiment, NB2 cells were incubated in RPMI 1640 supplemented with 10% HS. Thereafter, the NB2 cells were washed once with 1×DPBS (Dulbecco's Phosphate Buffered Saline), and plated at a density of 2×10^4 cells/100 μL/well in 5% HS-supplemented RPMI 1640 in 96-well plates (Corning, U.S.A.) with final volume of 100 μL. A series of concentrations of the samples were added in an amount of 20 μL to each well of the 96-well plates, followed by incubation at 37° C. for 48 hrs under a 5% CO2 condition. Subsequently, 20 μL of an MTS solution (Promega, U.S.A.) was added to each well of the 96-well plates and allowed to react at 37° C. for 3 hrs under a 5% CO2 condition. The reaction was terminated by adding 20 μL of 10% SDS (sodium dodecyl sulfate) to each well. Absorbance was measured at 490 nm using a VersaMax microplate reader (Molecular Device, U.S.A.).
Murine myeloblastic NFS-60 cells were incubated in RPMI 1640 supplemented with 10% FBS, mouse IL-3 and antibiotics at 37° C. under a 5% CO2 condition. The absorbance of the cells was measured at 490 nm in the same manner as in Test Example 4-1.

Molecule: human growth hormone [reference compound]
- Tmax [1]: 1 h
- serum half-life (t1/2) [1]: 0.8 h
- weight gain [2]: about 10.2%

Molecule: human interferon alpha [reference compound]
- Tmax [3]: 1.4 h
- serum half-life (t1/2) [3]: 3.4 h

Molecule: alpha-1 antitrypsin
- in vivo half-life [4]: 120 to 140 h

B1: granulocyte colony-stimulating factor/alpha-1 antitrypsin divariant fusion (protein)
chain: EDPQGDAAQKTDTSHHDQDHPTFNKITPNLAEFAFSLYRQLAHQSNSTNIFFSPVSIATAFAMLSLGTKADTHDEILEGLNFNLTEIPEAQIHEGFQELLRTLNQPDSQLQLTTGNGLFLSEGLKLVDKFLEDVKKLYHSEAFTVNFGDTEEAKKQINDYVEKGTQGKIVDLVKELDRDTVFALVNYIFFKGKWERPFEVKDTEEEDFHVDQVTTVKVPMMKRLGMFNIQHSKKLSSWVLLMKYLGNATAIFFLPDEGKLQHLENELTHDIITKFLENEDRRSASLHLPKLSITGTYDLKSVLGQLGITKVFSNGADLSGVTEEAPLKLSKAVHKAVLTIDEKGTEAAGAMFLEAINMSIPPEVKFNKPFVFLMIDQNTKSPLFMGKVVNPTQKGGGGSTPLGPASSLPQSFLLKCLEQVRKIQGDGAALQEKLCATYKLCHPEELVLLGHSLGIPWAPLSSCPSQALQLAGCLSQLHSGLFLYQGLLQALEGISPELGPTLDTLQLDVADFATTIWQQMEELGMAPALQPTQGAMPAFASAFQRRAGGVLVASHLQSFLEVSYRVLRHLAQP
modifications: T602S [alpha-1AT(P357N, C232S)/G-CSF]
notes: G-CSF fused to C-terminus of alpha-1 antitrypsin divariant 2 P357N, C232S
- Tmax ([5]; 340 μg/kg): 13.6 h
- serum half-life (t1/2) ([5]; 340 μg/kg): 5.1 h
- leucocyte count time course (leucocytes; subcutaneous, 340 μg/kg): peak level on Day 2 and then decrease from Day 3
- leucocyte count time course (leucocytes; subcutaneous, 1,700 μg/kg): remained high until Day 3 and started to decrease on Day 4
- EC50 [6]: 0.0781 nM

B2: granulocyte colony-stimulating factor/alpha-1 antitrypsin trivariant fusion (protein)
chain: EDPQGDAAQKTDTSHHDQDHPTFNKITPNLAEFAFSLYRQLAHQSNSTNIFFSPVSIATAFAMLSLGTKADTHDEILEGLNFNLTEIPEAQIHEGFQELLRTLNQPDSQLQLTTGNGLFLSEGLKLVDKFLEDVKKLYHSEAFTVNFGDTEEAKKQINDYVEKGTQGKIVDLVKELDRDTVFALVNYIFFKGKWERPFEVKDTEEEDFHVDQVTTVKVPMMKRLGMFNIQHSKKLSSWVLLMKYLGNATAIFFLPDEGKLQHLENELTHDIITKFLENEDRRSASLHLPKLSITGTYDLKSVLGQLGITKVFSNGADLSGVTEEAPLKLSKAVHKAVLTIDEKGTEAAGAMFLEAINMTIPPEVKFNKPFVFLMIDQNTKSPLFMGKVVNPTQKGGGGSTPLGPASSLPQSFLLKCLEQVRKIQGDGAALQEKLCATYKLCHPEELVLLGHSLGIPWAPLSSCPSQALQLAGCLSQLHSGLFLYQGLLQALEGISPELGPTLDTLQLDVADFATTIWQQMEELGMAPALQPTQGAMPAFASAFQRRAGGVLVASHLQSFLEVSYRVLRHLAQP
modifications: T602ST [alpha-1AT(P357N, C232S, S359T)/G-CSF]
notes: G-CSF fused to C-terminus of alpha-1 antitrypsin trivariant P357N, C232S, S359T
- Tmax ([5]; 340 μg/kg): 16 h
- serum half-life (t1/2) ([5]; 340 μg/kg): 4.5 h
- leucocyte count time course (leucocytes; subcutaneous, 1,700 μg/kg): remained high until Day 3 and started to decrease on Day 4
- EC50 [6]: 0.0976 nM

B3: Filgrastim (protein, chains of the INN, looked up)
chain: MTPLGPASSLPQSFLLKCLEQVRKIQGDGAALQEKLCATYKLCHPEELVLLGHSLGIPWAPLSSCPSQALQLAGCLSQLHSGLFLYQGLLQALEGISPELGPTLDTLQLDVADFATTIWQQMEELGMAPALQPTQGAMPAFASAFQRRAGGVLVASHLQSFLEVSYRVLRHLAQP
notes: Filgrastim (Gracin, Jeil Pharmaceutical), a commercially available granulocyte colony-stimulating factor
- Tmax ([5]; 100 μg/kg (Filgrastim control)): 1.8 h
- serum half-life (t1/2) ([5]; 100 μg/kg (Filgrastim control)): 1.8 h
- leucocyte count time course (leucocytes; subcutaneous, 100 μg/kg): peak level at Day 1 and then decrease to the base line from Day 2
